For test [1], the target named is T1, hen egg lysozyme (hen, UniProt P00698 19-147).
T1 construct: also called HEL; HL
The test is described as follows: ELISA on coated hen egg lysozyme, detection with 9e10 and anti mouse IgG-HRP.

Test [2] has as its target T1, hen egg lysozyme. The test is described as follows: selection from a dAb library.
Test [3] addresses T2, human TNFα (human, UniProt P01375 77-233).
T2 construct: also called TAR1; TNF alpha
The test is described as follows: TNF receptor assay (ELISA): inhibition of TNF binding to plate-bound TNF receptor 1-Fc.

Test [4] deals with T3, mouse serum albumin (mouse, UniProt P07724 25-608).
T3 construct: biotinylated MSA (about 2 biotins per molecule) in the capture ELISA; also called MSA
T3 sequence (P07724 25-608 limits assumed): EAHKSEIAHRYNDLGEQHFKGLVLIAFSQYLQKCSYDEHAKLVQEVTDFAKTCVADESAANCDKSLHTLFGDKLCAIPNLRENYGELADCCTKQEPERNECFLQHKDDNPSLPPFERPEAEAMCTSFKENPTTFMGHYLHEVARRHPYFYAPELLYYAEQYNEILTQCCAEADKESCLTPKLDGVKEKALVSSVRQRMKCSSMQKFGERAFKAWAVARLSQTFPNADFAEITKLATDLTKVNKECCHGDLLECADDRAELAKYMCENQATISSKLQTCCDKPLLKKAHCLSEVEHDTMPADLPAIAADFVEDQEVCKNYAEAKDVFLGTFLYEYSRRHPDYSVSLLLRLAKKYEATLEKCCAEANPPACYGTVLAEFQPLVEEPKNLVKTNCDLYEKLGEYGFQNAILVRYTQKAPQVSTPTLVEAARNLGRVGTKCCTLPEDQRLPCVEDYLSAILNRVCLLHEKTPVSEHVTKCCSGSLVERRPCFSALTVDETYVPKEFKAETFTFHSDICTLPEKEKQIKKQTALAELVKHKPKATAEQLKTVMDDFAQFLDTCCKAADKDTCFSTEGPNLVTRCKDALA
The test is described as follows: inhibition biacore: dAb premixed with MSA, binding to MSA-coated CM5 chip, Klotz plot (estimated Kd). The procedure:
The purified dabs were then analysed by inhibition biacore to determine Kd. […] Once the required concentrations of dAb had been determined, MSA antigen at a range of concentrations around the expected Kd was premixed with the dAb and incubated overnight. Binding to the MSA coated biacore chip of dAb in each of the premixes was then measured at a high flow-rate of 30 μl/minute.

In the next test the target is T4, human serum albumin (human, UniProt P02768 25-609).
T4 construct: also called HSA
The test is described as follows: capture ELISA: dAb on protein L, biotinylated HSA, streptavidin-HRP. The procedure:
(§1) Two rounds of selection were performed on serum albumin using each of the libraries separately. For each selection, antigen was coated on immunotube (nunc) in 4 ml of PBS at a concentration of 100 μg/ml. In the first round of selection, each of the three libraries was panned separately against HSA (Sigma) and MSA (Sigma). In the second round of selection, phage from each of the six first round selections was panned against (i) the same antigen again (eg 1st round MSA, 2nd round MSA) and (ii) against the reciprocal antigen (eg 1st round MSA, 2nd round HSA) resulting in a total of twelve 2nd round selections. In each case, after the second round of selection 48 clones were tested for binding to HSA and MSA. Soluble dAb fragments were produced as described for scFv fragments by Harrison et al, Methods Enzymol. 1996; 267:83-109 and standard ELISA protocol was followed (Hoogenboom et al. (1991) Nucleic Acids Res., 19: 4133) except that 2% tween PBS was used as a blocking buffer and bound dabs were detected with either protein LHRP (Sigma) (for the Vκs) and protein A—HRP (Amersham Pharmacia Biotech) (for the VHs).
Next, the serum albumin binding dAbs were tested for their ability to capture biotinylated antigen from solution. ELISA protocol (as above) was followed except that ELISA plate was coated with 1 μg/ml protein L (for the Vκ clones) and 1 μg/ml protein A (for the VH clones). […]
(ELISA stands for enzyme-linked immunosorbent assay.)

Test [5] addresses T3, mouse serum albumin. The test is described as follows: capture ELISA: dAb on protein L, biotinylated MSA, streptavidin-HRP. The procedure:
as §1
Next, the serum albumin binding dAbs were tested for their ability to capture biotinylated antigen from solution. ELISA protocol (as above) was followed except that ELISA plate was coated with 1 μg/ml protein L (for the Vκ clones) and 1 μg/ml protein A (for the VH clones). Soluble dAb was captured from solution as in the protocol and detection was with biotinylated MSA or HSA and streptavidin HRP. The biotinylated MSA and HSA had been prepared according to the manufacturer's instructions, with the aim of achieving an average of 2 biotins per serum albumin molecule. […] Next, the dAbs were tested for their ability to bind MSA coated on a CM5 biacore chip.

Test [6] deals with T2, human TNFα. The test is described as follows: TNF receptor assay (ELISA), fermenter material purified by cation exchange FPLC.
Test [7] deals with T2, human TNFα. The test is described as follows: cell-based or functional assay.
For test [8], the target named is T2, human TNFα. The test is described as follows: TNF receptor assay (ELISA): inhibition of TNF binding to plate-bound TNF receptor 1-Fc. The source holds these as a separate data set.
For test [9], the target named is T2, human TNFα. The test is described as follows: not stated; printed in the column 'Equilibrium dissocation constant (Kd = Koff/Kon)' of the data summary.
The target of test [10] is T2, human TNFα. The test is described as follows: TNF receptor assay (ELISA): inhibition of TNF binding to plate-bound TNF receptor 1-Fc. This is another data set of the same source.
The target of test [11] is T2, human TNFα. The test is described as follows: ELISA on 1 ug/ml TNF, 200 nM IgG, anti-Fc-HRP. How it is done:
A 96 well plate was coated with 100 ul of INF and TNFRI at 1 ug/ml concentration in PBS overnight at 4 C. 50 ul (200 nM) of IgG was then added to the wells and bound IgG was detected via anti-Fc-HRP.

T2 sequence (P01375 77-233 limits assumed): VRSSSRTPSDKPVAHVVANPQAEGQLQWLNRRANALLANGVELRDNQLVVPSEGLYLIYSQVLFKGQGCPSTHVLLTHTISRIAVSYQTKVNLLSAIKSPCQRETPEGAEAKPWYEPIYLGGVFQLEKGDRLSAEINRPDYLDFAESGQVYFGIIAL
T1 sequence (P00698 19-147): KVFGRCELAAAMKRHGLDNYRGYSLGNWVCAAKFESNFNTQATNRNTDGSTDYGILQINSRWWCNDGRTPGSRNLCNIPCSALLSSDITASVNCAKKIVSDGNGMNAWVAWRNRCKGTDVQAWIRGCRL

B1: VH CH/VH Cκ dual specific Fab like fragment (HEL4 CH, TAR2-5 Cκ) (Fab, V domains shown, not shown: a dimerising Fc or GST; small tags and cut ends)
V domain 1: EVQLLESGGGLVQPGGSLRLSCAASGFRISDEDMGWVRQAPGKGLEWVSSIYGPSGSTYYADSVKGRFTISRDNSKNTLYLQMNSLRAEDTAVYYCASALEPLSEPLGFWGQGTLVTVSS
V domain 2: EVQLLESGGGLVQPGGSLRLSCAASGFTFDLYNMFWVRQAPGKGLEWVSFISQTGRLTWYADSVKGRFTISRDNSKNTLYLQMNSLRAEDTAVYYCAKTLEDFDYWGQGTLVTVSS
In the test with hen egg lysozyme [1], B1 returned an ELISA signal of 0.154.

B2: HEL4 (other)
VH: EVQLLESGGGLVQPGGSLRLSCAASGFRISDEDMGWVRQAPGKGLEWVSSIYGPSGSTYYADSVKGRFTISRDNSKNTLYLQMNSLRAEDTAVYYCASALEPLSEPLGFWGQGTLVTVSS
notes: also called VH dAb HEL4; anti-hen egg white lysozyme dAb
Consider B2, for which the binding result with hen egg lysozyme [2] is recorded as “binds”.

B3: VH Cκ chain expressed alone (protein, not shown: a dimerising Fc or GST; small tags and cut ends)
VH: EVQLLESGGGLVQPGGSLRLSCAASGFTFDLYNMFWVRQAPGKGLEWVSFISQTGRLTWYADSVKGRFTISRDNSKNTLYLQMNSLRAEDTAVYYCAKTLEDFDYWGQGTLVTVSS
In the test with hen egg lysozyme [1], B3 yielded an ELISA signal of 0.069.

B4: trimeric TAR1-5-19CYS (other)
chain: DIQMTQSPSSLSASVGDRVTITCRASQSIDSYLHWYQQKPGKAPKLLIYSASELQSGVPSRFSGSGSGTDFTLTISSLQPEDFATYYCQQVVWRPFTFGQGTKVEIKRC
modifications: C-terminal Cys coupled to TMEA (Tris[2-maleimidoethyl]amine)
notes: also called the trimer; TAR1-5-19 homotrimer
As usually defined, the IC50 is the midpoint of a concentration-inhibition curve. B4 came in with an IC50 in the test with human TNFα [3] of 0.3 nM.

B5: MSA16 (other)
VL: DIQMTQSPSSLSASVGDRVTITCRASQSIIKHLKWYQQKPGKAPKLLIYGASRLQSGVPSRFSGSGSGTDFTLTISSLQPEDFATYYCQQGARWPQTFGQGTKVEIK
notes: also called 21; dAb MSA16
As usually defined, the Kd is a measure of binding affinity in units of concentration. For B5, in the test with mouse serum albumin [4], the Kd was 200 nM.

B6: anti-serum albumin Vκ dAb clones 38, 54 (other)
VL: DIQMTQSPSSLSASVGDRVTITCRASQSISSYLNWYQQKPGKAPKLLIYRASPLQSGVPSRFSGSGSGTDFTLTISSLQPEDFATYYCQQTYRIPPTFGQGTKVEIK
In the case of B6, the binding result with human serum albumin and with mouse serum albumin [5] was “binds” in each case.

B7: MSA26 (other)
VL: DIQMTQSPSSLSASVGDRVTITCRASQSIYYHLKWYQQKPGKAPKLLIYKASTLQSGVPSRFSGSGSGTDFTLTISSLQPEDFATYYCQQVRKVPRTFGQGTKVEIK
notes: also called 25; dAb MSA26
As to B7, the Kd with mouse serum albumin [4] was 70 nM.

B8: anti-serum albumin Vκ dAb clones 2, 4, 7, 41 (other)
VL: DIQMTQSPSSLSASVGDRVTITCRASQSISSYLNWYQQKPGKAPKLLIYRASPLQSGVPSRFSGSGSGTDFTLTISSLQPEDFATYYCQQTYSVPPTFGQGTKVEIK
Consider B8, for which the binding result in the test with human serum albumin and in the test with mouse serum albumin [5] was “binds” each time.

B9: TAR1-5-19d4 (other)
chain: DIQMTQSPSSLSASVGDRVTITCRASQSIDSYLHWYQQKPGKAPKLLIYSASELQSGVPSRFSGSGSGTDFTLTISSLQPEDFATYYCQQVVWRPFTFGQGTKVEIKRGGGGSGGGGSGGGGSGGGGSGGGGSDIQMTQSPSSLSASVGDRVTITCRASQSVKEFLWWYQQKPGKAPKLLIYMASNLQSGVPSRFSGSGSGTDFTLTISSLQPEDFATYYCQQKFKLPRTFGQGTKVEIK
On to B9, for which the IC50 with human TNFα [6] was 8 nM; in the test with human TNFα [8], 2 to 5 nM. For the same molecule, the “ND50 in the cell assay” value in the test with human TNFα [7] was around 5 nM.

B10: TAR1-5-19 dAb monomer (other)
VL: DIQMTQSPSSLSASVGDRVTITCRASQSIDSYLHWYQQKPGKAPKLLIYSASELQSGVPSRFSGSGSGTDFTLTISSLQPEDFATYYCQQVVWRPFTFGQGTKVEIKR
notes: also called TAR1-5-19 monomer; TAR1-5-19 Vκ dAb
B10 yielded a Kd with human TNFα [9] of 30 nM. In the test with human TNFα [10], this molecule came in with an IC50 of 30 nM. In addition, the “ND50 in the cell assay” value with human TNFα [7] was around 30 nM.

B11: TAR1/TAR2 IgG (bispecific antibody, V domains shown)
VH: EVQLLESGGGLVQPGGSLRLSCAASGFTFEWYWMGWVRQAPGKGLEWVSAISGSGGSTYYADSVKGRFTISRDNSKNTLYLQMNSLRAEDAAVYYCAKVKLGGGPNFGYRGQGTLVTVSS
VL: DIQMTQSPSSLSASVGDRVTITCRASQSIDSYLHWYQQKPGKAPKLLIYSASELQSGVPSRFSGSGSGTDFTLTISSLQPEDFATYYCQQVVWRPFTFGQGTKVEIKR
notes: expressed in COS7 cells with CD33 or IgG κ leader, purified on Protein A; also called the IgG; not shown: IgG1 heavy chain constant region (CH1 from the CH vector; hinge, CH2 and CH3 from the pigplus vector); light chain kappa constant region (CK domain from the CK vector)
On to B11, for which the binding result in the test with human TNFα [11] is on record as “binds”.

The values above are taken from US20060257406A1 (published 2006).
